Test results from the nanobody polyreactivity screen of Harvey et al. (2022).

test: yeast display, Sf9 membrane polyspecificity reagent, FACS + sequencing; frameworks hold sequencing errors
Method in brief: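 Galactose induction of a Saccharomyces cerevisiae BJ5465 synthetic nanobody display library ran 36–48 hours. The cells were then stained for 1 hour at 4 °C with 10% biotinylated, detergent-solubilized Sf9 membrane reagent, pulled down on streptavidin microbeads and FACS-sorted into low and high (top ~1%) gates on expression and reagent-binding fluorescence. Labels for polyreactivity follow the gate of origin.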

Sequence	polyreactivity (PSR sort gate)
QVQLVETGGGLVQAGGSLRISCAASGRIFGVYAMGWYRQAPGKERELVAAITRGASTYYADSVKGRFTISRDNAKNTVYLQMNILKPEDTAVYYCAVSQYRGIYRKYDYWGQGTQVTVSS	high polyreactivity
QVQLVETGGGLVQAGGSLRLRCAPSGSTFSEYAMGWYRQAPGKERELVPAITSGGITNYADSVKGRFTISRDNSKNTVYFKMNSLKPEDTAVYYCNTQDVYGDPVESLVDYDYWGQGTQVTVSS	high polyreactivity
QVQLVETGGGLVQAGGSLRLSCAASGFIFYNAMGWYRQAPGKERELVAAISSGGNTNYADSVKGRFTISRDNAKNTVYLQMNSLKPEDTAVYYCNAGLYQYEAWAYYIRYDYWGQGTQVTVSS	low polyreactivity
QVQLVETGGGLVQAGGSLRLSCAASGGIFEINVMGWYRQAPGKERELVAGINWSGTSTYFADSVKGRFTISRDNAKNTVYLQMNTLTPEDTSVYYCAAESYYRYVVPYDYWGQGTQVTVSS	high polyreactivity
QVQLVETGGGLVQAGGSLRLSCAASGIIFDGNTMGWYRQAPGKERELVAGIDFSDDSTNYADSVKGRFTISRDNAKNTVYLQMNSLKPEDTAVYYCAADTRSPSAHEVDYWGQGTQVTVSS	low polyreactivity
QVQLVETGGGLVQAGGSLRLSCAASGIIFSRYAMGWYRQAPGKERELVAAISTSGGRTFYADSVKGRFTISRDNAKNTVYLQMNSLKPEDTAVYYCAVDDLGWTTGGYLYLYGYWGQGTQVTVSS	high polyreactivity
QVQLVETGGGLVQAGGSLRLSCAASGITFFEYAMGWYRQAPGKERELVAGIRYSGSTTYYSDSVKGRFTISRDNAKNTVYLQMNSLKPEDSAVYYCNVDYYSGLYDYYSWGQGTQVTVSS	low polyreactivity
QVQLVETGGGLVQAGGSLRLSCAASGITFFRNAMGWYRQAPGKERELVAAISRGGGSTYYADSVKGRFTISRDNAKKTVYLQMNSLKPEDTAVYYCAEYKYGTGVKMDYWGQGTQVTVSS	high polyreactivity
QVQLVETGGGLVQAGGSLRLSCAASGRIFRGNTMGWYRQAPGKERELVAAITIRGRTYYADSVKGRFTISRDNAKNTVYLQMNSLKPEDTAVYYCAVASAGDNDYGGQGTQVTVSS	low polyreactivity
QVQLVETGGGLVQAGGSLRLSCAASGRIFVGYAKGWYRQAPGKERELVAAISARGGSTYYADSVKGRFTISRDNAKNTVYLQMNSLKPEDTAVYYCAADEASSRGYYDYDYWGQGTQVTVSS	low polyreactivity
QVQLVETGGGLVQAGGSLRLSCAASGRTFAYNAMGWYRQAPGKARELVAAITGSGGRTYYADSVKGRFTISRDNAKNTVYLQMNSLKPEETAVYYCAAEGPEIKYYYWGQGTQVTVSL	low polyreactivity
QVQLVETGGGLVQAGGSLRLSCAASGRTFAYYAMGWYRQAPGKERELVAAISSGGRTNYADSVKGLFTISRDNAKNTVYLQMNSLKPEDTAVYYCAAVRWVYPRRYYYWGQGTQVTVSS	high polyreactivity
QVQLVETGGGLVQAGGSLRLSCAASGRTFEYNAMGWYRQAPGKERELVATIRYSGTSTYADSVKGRFTISRDNAKNPVYLQMNSQKPEDTAVYYCAKQVRYYGYKYNYWGQGTQVTVSS	high polyreactivity
QVQLVETGGGLVQAGGSLRLSCAASGRTFQYYAMGWYRQATGTERELVAAITSGGSTYYADSVKGRFTISRDNAKKTVYLQMNSLKPEDTAVSYCAATFYYSGHDDYWGQVTQVTVSS	low polyreactivity
QVQLVETGGGLVQAGGSLRLSCAASGRTFYYNGRGWYRQAPGKERELVAAITSGGTTSYADSVKGRFTISRDNAKNTVYLQMNSLKPEETAVYYCNADYWAVNYDYWGQGTQVTVSS	low polyreactivity
QVQLVETGGGLVQAGGSLRLSCAASGRTLSQNTMGWNRQAPRKEREFVASITYSGGITYYADSVKGRFTISRDNAKNTVYLQMNSLKPEDTAVYYCNKRGSHYWYSYPGDYWGQGTQVTVSS	low polyreactivity
QVQLVETGGGLVQAGGSLRLSCAASGRTYLIYAMGWYRQAPGKERELVAAIRDRGATTYYADSVKGRFTISRDNAKNTVYLQMNSLKPEETAVYYCAARNGAYPALKEGDYWGQGTQVTVSS	high polyreactivity
QVQLVETGGGLVQAGGSLRLSCAASGSIADVYAMGWYRQAPGKERELVAAITSGASTYYADSVKGRFTISRDNAKNTVYLQMNSLKPEDTAVYYCTKSAAITGNGHMDYWGQGTQVTVSS	low polyreactivity
QVQLVETGGGLVQAGGSLRLSCAASGSIFFLYAMGWYRQAPGKERELVAAISRTGSTYADSVKGRLTISRDNAKNTVYLQMNSLKPEDTAVYYCDAEYRYYWYGTMNYWGQGTQVTVSS	low polyreactivity
QVQLVETGGGLVQAGGSLRLSCAASGSIFIYYAMGWYRQAPGKERELVAAIRLSSGSTYYADSVKGRFTISRDNSKNTVYLQMIRLKPEYTAVYYCAARRKRPFSVYDHWGKGTQVTVSS	high polyreactivity
QVQLVETGGGLVQAGGSLRLSCAASGSIFLGNAMGWYRQAPGKERELVAAISGGDSTNYADSVKGRFTISRDNAKNTVYLQMKSLKPEDTAVYYCNALTHWAPASYEYDYWGQCTQVTVSS	low polyreactivity

Sequence	polyreactivity (PSR sort gate)
QVQLVETGGGLVQAGGSLRLSCAASGSIFTPYAIGWYRKAPGKDRELVAAITSRGGTTYYADSVKGRFTISRDNAKNTVYLQMNSLKPEDTAVYYCAAEYYHLYYYQFDYWGQGTQVTVSS	high polyreactivity
QVQLVETGGGLVQAGGSLRLSCAASGSIFVYYAMGWYRQAPGKERELVAAISSRGGRTYYADSVKGRFTISRDNAKHTVYLQMNSLIPEDTAVYYCAASPDYSRYWVYAPNRRLGYWGQGTQVTVSS	high polyreactivity
QVQLVETGGGLVQAGGSLRLSCAASGSISPINAMGWYRQPPGKERELVAAINGGGSTYYADSVKGRFTISRDNAKNTVYLQMNSLKPEDTAVYYCSRDALHYAGSLHRYGYWGQGTQVTLSS	low polyreactivity
QVQLVETGGGLVQAGGSLRLSCAASGSTFEYYAMGWYRQAPGKERELVAAISSGPSTTYADSVKGRFTISRDNAKNTVYLQMNSLKPEDTAVYYCARRDGTTQALFGYDYWGQGTQVTVSS	low polyreactivity
QVQLVETGGGLVQAGGSLRLSCAASGSTFGYYAMGWYRQAPGKERELVAAITSGGSTYYADSVKGRFTISRDNAKNSVFLQMNSLKPEDTAVYYCAATWYGFAYDYWGQGTQVTVSS	low polyreactivity
QVQLVETGGGLVQAGGSLRLSCAASGSTFYPTYAMGWYRQAPGKERELVATITGSGGSTYYADSVKGRFTISRDNAKNTVYLKMNSLKPEDTAVYYCAADRWYSRYTRYGYWGQGTQVTVSS	low polyreactivity
QVQLVETGGGLVQAGGSLRLSCAASGSTFYRYAMGWYRQAPGKERELVAAITRSGGGTHYADSVKGRFTISRDNAKNTVYLQMNSLKPEDTAVYYCAKRQSGYRYDYWGQGTQVTVSS	low polyreactivity
QVQLVETGGGLVQAGGSLRLSCAASGSTLTYYTMGWYRQAPGKERELVARISWSSGRTYYAVSVKGRFTISRDNAMNTVYLQMNSLKPEDTAVYYCNADRTYYRGLDYWGQGTQVTVSS	high polyreactivity
QVQLVETGGGLVQAGGSLRLSCAASGYIFYPYTMGSYRPAPGKATELVAAITWSGSTYSADSVQGRFTMSRDTAKNTVYLQMKSLKPEDTAVYYCAADFDSYDSYTYLQYDYWGQGTQVTVSS	low polyreactivity
QVQLVETGGGLVQAGGSLRLSCAASVIISSVYAMGWYRQAPGNERELVAAISGSGGSTYYADSVKGRFTISRDNAKNTVYLQMISLKPEDTAVYYCAKGYQYQGNSYGYWGQGTQVTVSS	low polyreactivity
QVQLVETGGGLVQAGGSLRLSCAATEFIFRNYDMGWYRQAPGKERELVASISRGTSTNYADSVKGRFTISRDNAKNTVYLQKNSLKPEDTAVYYCNKRFYYHPFDYWGQGSQVTVSS	high polyreactivity
QVQLVETGGGLVQAGGSLRLSCAATGFTFGYYTMGWYRQAPGKEGELVAAITWRGGSTYYADSVKGRFTISRDNAKNTVYLQMNSLKPEDTAVYYCNAVVLGYYPSGVYPDDEEHDYWGQGTQVTVSS	high polyreactivity
QVQLVETGGGLVQAGGSLRLSCAATGLIFYSYPMGWYRQAPGKERELVAALNGGGGSTYYADSVKGRFTISRDNAKNTVYLQMKSLKPEDTAVYYCAADLYNRGRGSSQSYRTGYDYWGQGTQVTVSS	high polyreactivity
QVQLVETGGGLVQAGGSLRLSCAPSGFTFRRNAMGWYRQAPGKERELVAVITSSARTNYADSVKGRFTISRDNAKNTVYLQMNSLKPEDTAVYYCAARYHYGVWRERHGYWGQGTQVTVSS	high polyreactivity
QVQLVETGGGLVQAGGSLRLSCASSGFIFVRYAMGWYRQAPGKERELVAAITKGGGRTYYADSVKGRFTISRDNAKNTVYLQMNSLKPEDTAVYYCATAGAHGRERDYWGQGTQVTVSS	high polyreactivity
QVQLVETGGGLVQAGGSLRLSSAASGGIFSPNAMGWYRQAPGKEREFVAAISSNGGSTNYADSVKGRFTISRDNAKNTVYLQMNSLKPEDTAVYYCAADYPDHPLWGPEYDYWGQRTQVTVSS	low polyreactivity
QVQLVETGGGLVQAGGSLRLSSAGSGSISYAYAMGWYRQARGKEREFVAAITDSGGSTYYADSVKGRFTISRDNAKNTVYSQMNSLKPEDTAVYYCAAGGPWWSGYYYWGQGTQVTVSS	low polyreactivity
QVQLVETGGGLVQAGGSLRVSCAASGSIFVGYPMGWYRQAPGKERELVAAISSNGGSTYYADSVKGRFTISRDNAKNTVYVQMNSLKPEDTAVYYCAAGVRRVYASGHGAYGYWGQGTQVTVSS	low polyreactivity
QVQLVETGGGLVQAGGSLSLSCAASGYIFEINAKGWYRQAPGKERELVADIRRGDSTNYADSVKGRFTISRDNSMNTVYLQMNSLKPEDTAVYYCAAYHRLFDYDYCGQGTQVTVSS	high polyreactivity
QVQLVETGGGLVQAGGSLSLSCAGSVSTFWFYPMGCYRQATGKEREFVATISRSGGSTHNADSVKGRFTISSDNAKNTVYLQMNSLKPEDTAVYYCAKYQRYYSNDYNYWGQGTQVTVSS	high polyreactivity
